According to publication PMC6070864, “The Bacteriophage T4 MotB Protein, a DNA-Binding Protein, Improves Phage Fitness”:

T1: MotB-His (Enterobacteria phage T4, UniProt Q01437 1-162)
T1 sequence: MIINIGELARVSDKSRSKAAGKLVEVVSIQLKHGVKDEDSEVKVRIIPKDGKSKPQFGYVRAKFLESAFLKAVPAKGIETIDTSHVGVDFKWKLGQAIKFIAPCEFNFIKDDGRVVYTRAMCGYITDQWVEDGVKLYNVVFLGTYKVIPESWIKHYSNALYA


Key:
[1] = target: T1, MotB-His; experiment: EMSA; apparent Kd (50% shift); 4 mM Mg acetate; Oligo EMSA/footprint: 40 mM Tris acetate pH 7.9, 20 mM Tris-HCl pH 8.0, 2 mM K phosphate, 60 mM NaCl, 150 mM K glutamate, 4 mM Mg acetate, 0.52 mM EDTA, 0.14 mM DTT, 0.1 mg/mL BSA, 0.004% Triton X-100, 30% glycerol, 1 nM DNA (5 nM in footprint), 37 C 10 min; T4/lambda EMSA: 20 mM Tris-HCl pH 8, 2 mM K phosphate, 60 mM NaCl, 0.42 mM EDTA, 0.04 mM DTT, 0.004% Triton …; details: protein: recombinant; tags: C-terminal His6; label: 5'-32P top strand
[2] = target: T1, MotB-His; experiment: EMSA; 4 mM Mg acetate; Oligo EMSA/footprint: 40 mM Tris acetate pH 7.9, 20 mM Tris-HCl pH 8.0, 2 mM K phosphate, 60 mM NaCl, 150 mM K glutamate, 4 mM Mg acetate, 0.52 mM EDTA, 0.14 mM DTT, 0.1 mg/mL BSA, 0.004% Triton X-100, 30% glycerol, 1 nM DNA (5 nM in footprint), 37 C 10 min; T4/lambda EMSA: 20 mM Tris-HCl pH 8, 2 mM K phosphate, 60 mM NaCl, 0.42 mM EDTA, 0.04 mM DTT, 0.004% Triton X-100, 30% glycerol, 37 C 10 …; details: protein: recombinant; tags: C-terminal His6; label: 5'-32P

Binder	Kd [1] [µM]	binding signal [2]
dsP8 (37 bp) (dsDNA) DNA 1: CAGAGACTATAATTAATAAATACAAAAACTATAAATG DNA 2: CATTTATAGTTTTTGTATTTATTAATTATAGTCTCTG	0.1 ± 0.03	
CAGAGACTATAATTAATAAATACAAAAACTATAAATG (ssDNA) [ssP8 (37 nt)]		~6 fold lower affinity than dsP8
